# In US20240376170A1 (BRIGHT PEAK THERAPEUTICS, published 2024):
# Bridges are numbered along the chain shown (N, C = ends). Primed or numbered codes have the meaning given here. [ ]: non-standard residue; d: D form. 8x polyethylene glycol‑amino = O-(8x polyethylene glycol-amino)-tyrosine, SITE 45; 9x polyethylene glycol‑azido = O-(9x polyethylene glycol-azido)-tyrosine, SITE 42; Ygp″ = O-(8x polyethylene glycol-amino)-tyrosine; Yn3″ = O-(9x polyethylene glycol-azido)-tyrosine; hSer = N[C@@H](CCO)C(=O)O; Nle = CCCC[C@H](N)C(=O)O
# T1: IL-2 receptor βγ complex (human, UniProt P14784 27-551; P31785 23-369)
# T1 sequence (looked up) 1: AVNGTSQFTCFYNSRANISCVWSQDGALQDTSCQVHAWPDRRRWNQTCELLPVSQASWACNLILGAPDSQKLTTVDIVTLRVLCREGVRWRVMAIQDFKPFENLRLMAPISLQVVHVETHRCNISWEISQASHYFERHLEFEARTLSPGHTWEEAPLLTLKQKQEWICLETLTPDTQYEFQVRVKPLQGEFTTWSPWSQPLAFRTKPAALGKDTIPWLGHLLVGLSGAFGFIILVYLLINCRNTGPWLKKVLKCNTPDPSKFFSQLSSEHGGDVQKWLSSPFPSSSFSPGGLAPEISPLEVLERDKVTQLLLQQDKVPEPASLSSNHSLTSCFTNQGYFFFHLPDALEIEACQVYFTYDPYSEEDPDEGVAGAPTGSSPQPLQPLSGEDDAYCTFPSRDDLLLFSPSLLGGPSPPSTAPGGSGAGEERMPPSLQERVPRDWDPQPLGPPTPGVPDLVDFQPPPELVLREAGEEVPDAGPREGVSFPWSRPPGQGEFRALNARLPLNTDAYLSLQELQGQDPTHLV
# T1 sequence (looked up) 2: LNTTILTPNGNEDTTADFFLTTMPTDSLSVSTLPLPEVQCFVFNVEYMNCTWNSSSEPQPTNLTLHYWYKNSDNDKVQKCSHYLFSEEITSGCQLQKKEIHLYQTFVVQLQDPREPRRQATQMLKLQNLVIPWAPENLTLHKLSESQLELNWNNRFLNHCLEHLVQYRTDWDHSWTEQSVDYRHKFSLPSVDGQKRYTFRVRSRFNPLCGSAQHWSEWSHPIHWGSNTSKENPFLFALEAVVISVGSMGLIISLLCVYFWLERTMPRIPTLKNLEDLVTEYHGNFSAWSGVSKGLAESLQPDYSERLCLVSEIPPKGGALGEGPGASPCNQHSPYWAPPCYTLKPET
# Target: T1, IL-2 receptor βγ complex
# Assay: cell-based or functional assay
row,Binder,"Average EC50, pSTAT5 Assay in NK cells"
1,"CMP-330, uPa cleaved molecule (ligand, not fully specified; also: Lys9 side chain attached to another sequence, Glu23 side chain attached to another sequence) APTSSSTKKTQLQLEHLLLDLQEILNGINNYKNPKLTR[Nle]L[hSer]Y(9x polyethylene glycol‑azido)KFY(8x polyethylene glycol‑amino)[Nle]PKKATELKHLQCLEEELKPLEEVL[hSer]LAQSKNFHLRPRDLISNINVIVLELKGSETTF[hSer]CEYADETATIVEFLNRWITFSQSIISTLT",27 nM
2,"CMP-328, MMP2 cleaved molecule (ligand, ends and bridges not checked; also: after MMP2 cleavage, remnants of the Lys9–Glu23 peptide linker not given here) APTSSSTKKTQLQLEHLLLDLQEILNGINNYKNPKLTR[Nle]L[hSer][Yn3″]KF[Ygp″][Nle]PKKATELKHLQCLEEELKPLEEVL[hSer]LAQSKNFHLRPRDLISNINVIVLELKGSETTF[hSer]CEYADETATIVEFLNRWITFSQSIISTLT",1.48 nM
3,"CMP-330 (ligand, bridge 9-23; not fully specified (bridges)) APTSSSTKKTQLQLEHLLLDLQEILNGINNYKNPKLTR[Nle]L[hSer]Y(9x polyethylene glycol‑azido)KFY(8x polyethylene glycol‑amino)[Nle]PKKATELKHLQCLEEELKPLEEVL[hSer]LAQSKNFHLRPRDLISNINVIVLELKGSETTF[hSer]CEYADETATIVEFLNRWITFSQSIISTLT",20.3 nM
4,"CMP-327, uPa cleaved molecule (ligand, ends and bridges not checked; also: after uPa cleavage, remnants of the Lys9–Glu23 peptide linker not given here) APTSSSTKKTQLQLEHLLLDLQEILNGINNYKNPKLTR[Nle]L[hSer][Yn3″]KF[Ygp″][Nle]PKKATELKHLQCLEEELKPLEEVL[hSer]LAQSKNFHLRPRDLISNINVIVLELKGSETTF[hSer]CEYADETATIVEFLNRWITFSQSIISTLT",12.1 nM
5,"CMP-329, uPa cleaved molecule (ligand, not fully specified; also: K9 and E23 side chains attached to another sequence, uPa-cleaved product, remnants not given here) APTSSSTKKTQLQLEHLLLDLQEILNGINNYKNPKLTR[Nle]L[hSer]Y(9x polyethylene glycol‑azido)KFY(8x polyethylene glycol‑amino)[Nle]PKKATELKHLQCLEEELKPLEEVL[hSer]LAQSKNFHLRPRDLISNINVIVLELKGSETTF[hSer]CEYADETATIVEFLNRWITFSQSIISTLT",18.1 nM
6,"CMP-330, Matriptase cleaved molecule (ligand, not fully specified; also: K9 and E23 side chains attached to another sequence, matriptase-cleaved product, remnants not given here) APTSSSTKKTQLQLEHLLLDLQEILNGINNYKNPKLTR[Nle]L[hSer]Y(9x polyethylene glycol‑azido)KFY(8x polyethylene glycol‑amino)[Nle]PKKATELKHLQCLEEELKPLEEVL[hSer]LAQSKNFHLRPRDLISNINVIVLELKGSETTF[hSer]CEYADETATIVEFLNRWITFSQSIISTLT",16.4 nM
7,"CMP-331 (ligand, bridge N-23; not fully specified (bridges)) APTSSSTKKTQLQLEHLLLDLQKILNGINNYKNPKLTR[Nle]L[hSer]Y(9x polyethylene glycol‑azido)KFY(8x polyethylene glycol‑amino)[Nle]PKKATELKHLQCLEEELKPLEEVL[hSer]LAQSKNFHLRPRDLISNINVIVLELKGSETTF[hSer]CEYADETATIVEFLNRWITFSQSIISTLT",6.59 nM
8,"CMP-328, uPa cleaved molecule (ligand, ends and bridges not checked; also: after uPa cleavage, remnants of the Lys9–Glu23 peptide linker not given here) APTSSSTKKTQLQLEHLLLDLQEILNGINNYKNPKLTR[Nle]L[hSer][Yn3″]KF[Ygp″][Nle]PKKATELKHLQCLEEELKPLEEVL[hSer]LAQSKNFHLRPRDLISNINVIVLELKGSETTF[hSer]CEYADETATIVEFLNRWITFSQSIISTLT",2.96 nM
9,"CMP-329, MMP2 cleaved molecule (ligand, ends and bridges not checked; also: after MMP2 cleavage, remnants of the Lys9–Glu23 peptide linker not given here) APTSSSTKKTQLQLEHLLLDLQEILNGINNYKNPKLTR[Nle]L[hSer][Yn3″]KF[Ygp″][Nle]PKKATELKHLQCLEEELKPLEEVL[hSer]LAQSKNFHLRPRDLISNINVIVLELKGSETTF[hSer]CEYADETATIVEFLNRWITFSQSIISTLT",0.687 nM
10,"CMP-330, MMP2 cleaved molecule (ligand, not fully specified; also: K9 and E23 side chains attached to another sequence, MMP2-cleaved product, remnants not given here) APTSSSTKKTQLQLEHLLLDLQEILNGINNYKNPKLTR[Nle]L[hSer]Y(9x polyethylene glycol‑azido)KFY(8x polyethylene glycol‑amino)[Nle]PKKATELKHLQCLEEELKPLEEVL[hSer]LAQSKNFHLRPRDLISNINVIVLELKGSETTF[hSer]CEYADETATIVEFLNRWITFSQSIISTLT",6.12 nM

# More lines, now with the values ahead:
row,"Average EC50, pSTAT5 Assay in NK cells",Binder
1,5.09 nM,"CMP-331, MMP2 cleaved molecule (ligand, not fully specified; also: N-terminus (pentanedioic acid-PEG9 linker) and Lys23 side chain attached to another sequence, what remains after MMP2 cleavage is not given here) APTSSSTKKTQLQLEHLLLDLQKILNGINNYKNPKLTR[Nle]L[hSer]Y(9x polyethylene glycol‑azido)KFY(8x polyethylene glycol‑amino)[Nle]PKKATELKHLQCLEEELKPLEEVL[hSer]LAQSKNFHLRPRDLISNINVIVLELKGSETTF[hSer]CEYADETATIVEFLNRWITFSQSIISTLT"
2,14.4 nM,"CMP-329, Matriptase cleaved molecule (ligand, ends and bridges not checked; also: after matriptase cleavage, remnants of the Lys9–Glu23 peptide linker not given here) APTSSSTKKTQLQLEHLLLDLQEILNGINNYKNPKLTR[Nle]L[hSer][Yn3″]KF[Ygp″][Nle]PKKATELKHLQCLEEELKPLEEVL[hSer]LAQSKNFHLRPRDLISNINVIVLELKGSETTF[hSer]CEYADETATIVEFLNRWITFSQSIISTLT"
3,9.23 nM,"CMP-328 (ligand, bridge 9-23; not fully specified (bridges); ends not checked) APTSSSTKKTQLQLEHLLLDLQEILNGINNYKNPKLTR[Nle]L[hSer][Yn3″]KF[Ygp″][Nle]PKKATELKHLQCLEEELKPLEEVL[hSer]LAQSKNFHLRPRDLISNINVIVLELKGSETTF[hSer]CEYADETATIVEFLNRWITFSQSIISTLT"
4,4.28 nM,"CMP-328, Matriptase cleaved molecule (ligand, ends and bridges not checked; also: after matriptase cleavage, remnants of the Lys9–Glu23 peptide linker not given here) APTSSSTKKTQLQLEHLLLDLQEILNGINNYKNPKLTR[Nle]L[hSer][Yn3″]KF[Ygp″][Nle]PKKATELKHLQCLEEELKPLEEVL[hSer]LAQSKNFHLRPRDLISNINVIVLELKGSETTF[hSer]CEYADETATIVEFLNRWITFSQSIISTLT"
5,20.6 nM,"CMP-329 (ligand, bridge 9-23; not fully specified (bridges); ends not checked) APTSSSTKKTQLQLEHLLLDLQEILNGINNYKNPKLTR[Nle]L[hSer][Yn3″]KF[Ygp″][Nle]PKKATELKHLQCLEEELKPLEEVL[hSer]LAQSKNFHLRPRDLISNINVIVLELKGSETTF[hSer]CEYADETATIVEFLNRWITFSQSIISTLT"
